Data reported in patent publication US20040214757.

How the values were obtained:
Test in all cases: EMSA
[1] = target: Oct-2 truncated at StuI (cDNA 655-1443) (Homo sapiens, UniProt P09086 SEQ:199-461)
Experimental: (§1) The polypeptides translated in vitro from these RNAs were tested for specific DNA binding by addition of the total translation mix to the DNA-protein gel assay.

[2] = target: T1, Oct-2 truncated at PstI (cDNA 655-1134) (Homo sapiens, UniProt P09086 SEQ:199-358)
T1 sequence: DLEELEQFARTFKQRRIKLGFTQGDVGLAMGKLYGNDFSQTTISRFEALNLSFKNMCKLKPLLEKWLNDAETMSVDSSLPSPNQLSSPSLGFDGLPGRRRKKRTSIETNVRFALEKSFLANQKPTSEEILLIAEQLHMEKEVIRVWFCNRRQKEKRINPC
Experimental: as §1

[3] = target: Oct-2 (pBS-ATG-oct-2, cDNA 655-1710) (Homo sapiens, UniProt P09086 SEQ:199-466)
Experimental: as §1

Measured: binding result

B1: OCTA octanucleotide probe (dsDNA)
DNA 1: ATGCAAAT
DNA 2: ATTTGCAT
binds: all assays above
